Data reported in PMC9482650, “Quantitative fragmentomics allow affinity mapping of interactomes” (Nature Communications, 2022).

Legend:
Test in all cases: holdup assay
Set-up in all cases: key: below the threshold = too weak to quantify, mostly under pKd 3.1 to 4
TIAM2, Q8IVF5 = target: T1, TIAM2, Q8IVF5
T1 sequence (Q8IVF5 885-986, limits assumed, looked up): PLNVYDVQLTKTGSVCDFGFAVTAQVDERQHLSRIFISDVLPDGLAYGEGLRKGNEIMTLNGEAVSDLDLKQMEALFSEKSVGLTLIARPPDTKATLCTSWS

LNX2_3, Q8N448 = target: T2, LNX2_3, Q8N448
T2 sequence (Q8N448 463-564, limits assumed, looked up): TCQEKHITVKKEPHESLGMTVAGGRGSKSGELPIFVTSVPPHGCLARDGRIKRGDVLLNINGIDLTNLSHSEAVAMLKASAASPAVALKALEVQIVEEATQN

RAPGEF6, Q8TEU7 = target: T3, RAPGEF6, Q8TEU7
T3 sequence (Q8TEU7 525-625, limits assumed, looked up): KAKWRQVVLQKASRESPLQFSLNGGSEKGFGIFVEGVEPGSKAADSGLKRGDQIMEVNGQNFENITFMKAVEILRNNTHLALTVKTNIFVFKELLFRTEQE

HTRA1, Q92743 = target: HTRA1, Q92743
HTRA1, Q92743, sequence (Q92743 360-477): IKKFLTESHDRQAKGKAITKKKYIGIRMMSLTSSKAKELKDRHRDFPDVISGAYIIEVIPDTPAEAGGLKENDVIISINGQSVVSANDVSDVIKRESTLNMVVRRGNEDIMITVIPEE

NHERF2_2, Q15599 = target: NHERF2_2, Q15599
NHERF2_2, Q15599, sequence (Q15599 142-238): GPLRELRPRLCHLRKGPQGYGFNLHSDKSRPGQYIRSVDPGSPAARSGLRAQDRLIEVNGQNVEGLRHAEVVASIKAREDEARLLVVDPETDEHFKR

MAGI2_2, Q86UL8 = target: MAGI2_2, Q86UL8
MAGI2_2, Q86UL8, sequence (Q86UL8 410-522): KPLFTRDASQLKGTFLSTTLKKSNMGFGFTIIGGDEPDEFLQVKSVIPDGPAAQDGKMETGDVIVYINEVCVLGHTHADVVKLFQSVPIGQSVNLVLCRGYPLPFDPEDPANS

FRMPD2_2, Q68DX3 = target: FRMPD2_2, Q68DX3
FRMPD2_2, Q68DX3, sequence (Q68DX3 944-1038): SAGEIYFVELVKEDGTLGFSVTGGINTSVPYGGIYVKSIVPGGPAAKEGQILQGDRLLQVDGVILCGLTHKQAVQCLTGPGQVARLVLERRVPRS

DLG4_3, P78352 = target: DLG4_3, P78352
DLG4_3, P78352, sequence (P78352 306-403): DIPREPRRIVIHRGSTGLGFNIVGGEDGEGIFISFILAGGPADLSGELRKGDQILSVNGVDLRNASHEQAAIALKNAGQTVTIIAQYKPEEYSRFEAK

IL16_1, Q14005 = target: IL16_1, Q14005
IL16_1, Q14005, sequence (Q14005 210-306): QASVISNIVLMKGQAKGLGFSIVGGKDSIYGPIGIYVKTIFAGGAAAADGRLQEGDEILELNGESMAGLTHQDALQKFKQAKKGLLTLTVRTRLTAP

SIPA1L2, Q9P2F8 = target: T4, SIPA1L2, Q9P2F8
T4 sequence (Q9P2F8 945-1036, limits assumed, looked up): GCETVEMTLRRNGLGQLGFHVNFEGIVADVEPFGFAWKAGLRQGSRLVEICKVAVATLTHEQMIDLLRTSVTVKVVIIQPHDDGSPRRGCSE

MAST1, Q9Y2H9 = target: MAST1, Q9Y2H9
MAST1, Q9Y2H9, sequence (Q9Y2H9 962-1065): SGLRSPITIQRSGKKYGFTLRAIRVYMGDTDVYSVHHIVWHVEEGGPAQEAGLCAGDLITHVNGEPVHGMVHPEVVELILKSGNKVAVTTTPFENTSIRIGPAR

PICK1, Q9NRD5 = target: PICK1, Q9NRD5
PICK1, Q9NRD5, sequence (Q9NRD5 17-115): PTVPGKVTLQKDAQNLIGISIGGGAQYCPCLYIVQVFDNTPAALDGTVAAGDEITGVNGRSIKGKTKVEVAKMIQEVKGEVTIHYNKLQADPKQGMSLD

PTPN3, P26045 = target: PTPN3, P26045
PTPN3, P26045, sequence (P26045 505-587): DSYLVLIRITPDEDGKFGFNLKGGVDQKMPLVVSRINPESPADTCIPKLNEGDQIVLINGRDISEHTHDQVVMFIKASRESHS

MAGI2_3, Q86UL8 = target: MAGI2_3, Q86UL8
MAGI2_3, Q86UL8, sequence (Q86UL8 600-682): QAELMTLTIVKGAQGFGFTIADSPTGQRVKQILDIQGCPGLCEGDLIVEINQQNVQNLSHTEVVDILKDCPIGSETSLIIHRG

MPP6, Q9NZW5 = target: T5, MPP6, Q9NZW5
T5 sequence (Q9NZW5 125-219, limits assumed, looked up): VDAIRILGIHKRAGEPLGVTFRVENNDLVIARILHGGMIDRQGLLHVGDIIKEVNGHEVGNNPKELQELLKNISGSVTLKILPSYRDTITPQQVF

GRIP1_3, Q9Y3R0 = target: T6, GRIP1_3, Q9Y3R0
T6 sequence (Q9Y3R0 247-346, limits assumed, looked up): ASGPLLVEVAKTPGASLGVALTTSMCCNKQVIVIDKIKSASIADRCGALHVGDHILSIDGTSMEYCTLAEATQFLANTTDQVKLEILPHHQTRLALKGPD

APBA2_2, Q99767 = target: T7, APBA2_2, Q99767
T7 sequence (Q99767 654-744, limits assumed, looked up): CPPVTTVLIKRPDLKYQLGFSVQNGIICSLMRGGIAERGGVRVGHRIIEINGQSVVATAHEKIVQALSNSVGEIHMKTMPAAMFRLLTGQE

LDB3, O75112 = target: LDB3, O75112
LDB3, O75112, sequence (O75112 1-94): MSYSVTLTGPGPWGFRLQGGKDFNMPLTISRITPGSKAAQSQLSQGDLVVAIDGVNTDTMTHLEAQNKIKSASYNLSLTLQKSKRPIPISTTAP

GRIP2_5, Q9C0E4 = target: GRIP2_5, Q9C0E4
GRIP2_5, Q9C0E4, sequence (Q9C0E4 544-642): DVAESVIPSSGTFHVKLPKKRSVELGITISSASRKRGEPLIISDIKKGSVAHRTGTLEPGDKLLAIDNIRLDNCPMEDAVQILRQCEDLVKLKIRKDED

DLG1_1, Q12959 = target: DLG1_1, Q12959
MPDZ_5, O75970 = target: T8, MPDZ_5, O75970
T8 sequence (O75970 695-796, limits assumed, looked up): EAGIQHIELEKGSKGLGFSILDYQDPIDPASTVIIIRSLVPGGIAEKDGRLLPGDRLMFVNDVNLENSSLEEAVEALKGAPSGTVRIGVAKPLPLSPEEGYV

HTRA4, P83105 = target: T9, HTRA4, P83105
T9 sequence (P83105 378-476, limits assumed, looked up): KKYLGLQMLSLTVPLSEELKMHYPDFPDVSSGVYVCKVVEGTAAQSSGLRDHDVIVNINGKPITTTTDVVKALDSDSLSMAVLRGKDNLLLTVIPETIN

FRMPD2_1, Q68DX3 = target: FRMPD2_1, Q68DX3
FRMPD2_1, Q68DX3, sequence (Q68DX3 770-861): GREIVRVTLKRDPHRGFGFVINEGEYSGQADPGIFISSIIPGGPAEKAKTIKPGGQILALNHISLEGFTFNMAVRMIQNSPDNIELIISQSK

PDLIM1, O00151 = target: PDLIM1, O00151
PDLIM1, O00151, sequence (O00151 1-87): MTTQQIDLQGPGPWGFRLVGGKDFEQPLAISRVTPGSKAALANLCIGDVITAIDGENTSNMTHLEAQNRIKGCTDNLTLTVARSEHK

SNTB1, Q13884 = target: T10, SNTB1, Q13884
T10 sequence (Q13884 107-205, limits assumed, looked up): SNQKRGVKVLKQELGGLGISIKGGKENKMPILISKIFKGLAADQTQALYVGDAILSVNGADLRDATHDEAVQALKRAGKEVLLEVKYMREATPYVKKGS

LRRC7, Q96NW7 = target: T11, LRRC7, Q96NW7
T11 sequence (Q96NW7 1440-1537, limits assumed, looked up): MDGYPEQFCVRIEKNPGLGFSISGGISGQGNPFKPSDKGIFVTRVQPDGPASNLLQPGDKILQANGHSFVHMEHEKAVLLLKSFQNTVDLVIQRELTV

DLG4_1, P78352 = target: DLG4_1, P78352
DLG4_1, P78352, sequence (P78352 62-152): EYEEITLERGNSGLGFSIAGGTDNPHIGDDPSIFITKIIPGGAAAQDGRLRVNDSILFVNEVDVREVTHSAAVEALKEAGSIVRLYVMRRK

[1] = plain residues with an end cap or a label only (N-terminal biotin on a linker: ado-ado)
[2] = plain residues with an end cap or a label only (N-terminal biotin on a linker: (peg)3)

Binder: RTQSSDSAYV [GJD2, Q9UKL4]
- pKd (TIAM2, Q8IVF5; [1]): below the threshold
- pKd (LNX2_3, Q8N448; [1]): below the threshold
- pKd (RAPGEF6, Q8TEU7; [1]): below the threshold
- pKd (HTRA1, Q92743; [1]): 4.6
- pKd (NHERF2_2, Q15599; [1]): 3.49
- pKd (MAGI2_2, Q86UL8; [1]): below the threshold
- pKd (FRMPD2_2, Q68DX3; [1]): below the threshold
- pKd (DLG4_3, P78352; [1]): below the threshold
- pKd (IL16_1, Q14005; [1]): below the threshold
- pKd (SIPA1L2, Q9P2F8; [1]): below the threshold
- pKd (MAST1, Q9Y2H9; [1]): below the threshold
- pKd (PICK1, Q9NRD5; [1]): below the threshold
- pKd (PTPN3, P26045; [1]): 3.52
- pKd (MAGI2_3, Q86UL8; [1]): below the threshold
- pKd (MPP6, Q9NZW5; [1]): below the threshold
- pKd (GRIP1_3, Q9Y3R0; [1]): below the threshold
- pKd (APBA2_2, Q99767; [1]): below the threshold
- pKd (LDB3, O75112; [1]): below the threshold
- pKd (GRIP2_5, Q9C0E4; [1]): below the threshold
- pKd (DLG1_1, Q12959; [1]): below the threshold
- pKd (MPDZ_5, O75970; [1]): below the threshold
- pKd (HTRA4, P83105; [1]): below the threshold
- pKd (FRMPD2_1, Q68DX3; [1]): 3.66
- pKd (PDLIM1, O00151; [1]): below the threshold
- pKd (SNTB1, Q13884; [1]): below the threshold
- pKd (LRRC7, Q96NW7; [1]): below the threshold
- pKd (DLG4_1, P78352; [1]): below the threshold

Binder: YDEPTTTTSVPL [SARS-Cov2-3a, P0DTC3]
- pKd (TIAM2, Q8IVF5; [2]): below the threshold
- pKd (LNX2_3, Q8N448; [2]): below the threshold
- pKd (RAPGEF6, Q8TEU7; [2]): below the threshold
- pKd (HTRA1, Q92743; [2]): below the threshold
- pKd (NHERF2_2, Q15599; [2]): below the threshold
- pKd (MAGI2_2, Q86UL8; [2]): below the threshold
- pKd (FRMPD2_2, Q68DX3; [2]): below the threshold
- pKd (DLG4_3, P78352; [2]): below the threshold
- pKd (IL16_1, Q14005; [2]): below the threshold
- pKd (SIPA1L2, Q9P2F8; [2]): below the threshold
- pKd (MAST1, Q9Y2H9; [2]): below the threshold
- pKd (PICK1, Q9NRD5; [2]): below the threshold
- pKd (PTPN3, P26045; [2]): below the threshold
- pKd (MAGI2_3, Q86UL8; [2]): below the threshold
- pKd (MPP6, Q9NZW5; [2]): below the threshold
- pKd (GRIP1_3, Q9Y3R0; [2]): below the threshold
- pKd (APBA2_2, Q99767; [2]): below the threshold
- pKd (LDB3, O75112; [2]): below the threshold
- pKd (GRIP2_5, Q9C0E4; [2]): below the threshold
- pKd (DLG1_1, Q12959; [2]): below the threshold
- pKd (MPDZ_5, O75970; [2]): below the threshold
- pKd (HTRA4, P83105; [2]): below the threshold
- pKd (FRMPD2_1, Q68DX3; [2]): below the threshold
- pKd (PDLIM1, O00151; [2]): below the threshold
- pKd (SNTB1, Q13884; [2]): below the threshold
- pKd (LRRC7, Q96NW7; [2]): below the threshold
- pKd (DLG4_1, P78352; [2]): below the threshold

Binder: LTAQEQPVYI [APBA1, Q02410]
- pKd (TIAM2, Q8IVF5; [1]): 4.01
- pKd (LNX2_3, Q8N448; [1]): below the threshold
- pKd (RAPGEF6, Q8TEU7; [1]): below the threshold
- pKd (HTRA1, Q92743; [1]): 5.07
- pKd (NHERF2_2, Q15599; [1]): below the threshold
- pKd (MAGI2_2, Q86UL8; [1]): 3.52
- pKd (FRMPD2_2, Q68DX3; [1]): below the threshold
- pKd (DLG4_3, P78352; [1]): below the threshold
- pKd (IL16_1, Q14005; [1]): below the threshold
- pKd (SIPA1L2, Q9P2F8; [1]): below the threshold
- pKd (MAST1, Q9Y2H9; [1]): 3.58
- pKd (PICK1, Q9NRD5; [1]): below the threshold
- pKd (PTPN3, P26045; [1]): 3.61
- pKd (MAGI2_3, Q86UL8; [1]): below the threshold
- pKd (MPP6, Q9NZW5; [1]): below the threshold
- pKd (GRIP1_3, Q9Y3R0; [1]): below the threshold
- pKd (APBA2_2, Q99767; [1]): below the threshold
- pKd (LDB3, O75112; [1]): below the threshold
- pKd (GRIP2_5, Q9C0E4; [1]): below the threshold
- pKd (DLG1_1, Q12959; [1]): below the threshold
- pKd (MPDZ_5, O75970; [1]): 3.52
- pKd (HTRA4, P83105; [1]): 4.89
- pKd (FRMPD2_1, Q68DX3; [1]): below the threshold
- pKd (PDLIM1, O00151; [1]): below the threshold
- pKd (SNTB1, Q13884; [1]): below the threshold
- pKd (LRRC7, Q96NW7; [1]): below the threshold
- pKd (DLG4_1, P78352; [1]): below the threshold
